We go through nine substances from PMC12990809.

Common to all, as to experiment: pulldown
Data set [1] has as its target T1, Smp_006320 (Schistosoma mansoni) (UniProt G4VQQ6).
T1 sequence: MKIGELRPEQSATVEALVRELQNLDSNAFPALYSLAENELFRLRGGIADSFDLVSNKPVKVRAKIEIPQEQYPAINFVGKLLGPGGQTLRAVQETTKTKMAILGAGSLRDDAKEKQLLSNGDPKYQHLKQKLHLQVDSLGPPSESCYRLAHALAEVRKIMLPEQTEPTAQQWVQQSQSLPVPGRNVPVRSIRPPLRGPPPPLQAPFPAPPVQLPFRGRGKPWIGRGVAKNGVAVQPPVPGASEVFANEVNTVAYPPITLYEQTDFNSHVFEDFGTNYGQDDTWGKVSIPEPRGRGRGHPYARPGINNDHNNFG
The following applies: 20 nM protein, 1.5 uM RNA pool; 20 mM HEPES pH 7.8, 70 mM KCl, 10 mM NaCl, 10% glycerol, 2 mM DTT, 0.1 ug/uL BSA; 30 min, 4 C.

Data set [2] has as its target PGTG_09691 (Puccinia graminis) (UniProt E3KI53). The following applies: 20 nM protein, 1.5 uM RNA pool; 20 mM HEPES pH 7.8, 70 mM KCl, 10 mM NaCl, 10% glycerol, 2 mM DTT, 0.1 ug/uL BSA; 30 min, 4 C.
Data set [3] addresses fmr1 (Xenopus tropicalis) (UniProt Q6GLC9). As to conditions: 20 nM protein, 1.5 uM RNA pool; 20 mM HEPES pH 7.8, 70 mM KCl, 10 mM NaCl, 10% glycerol, 2 mM DTT, 0.1 ug/uL BSA; 30 min, 4 C.
Data set [4] addresses T2, rsp-3 (Caenorhabditis elegans) (UniProt Q9NEW6).
T2 sequence: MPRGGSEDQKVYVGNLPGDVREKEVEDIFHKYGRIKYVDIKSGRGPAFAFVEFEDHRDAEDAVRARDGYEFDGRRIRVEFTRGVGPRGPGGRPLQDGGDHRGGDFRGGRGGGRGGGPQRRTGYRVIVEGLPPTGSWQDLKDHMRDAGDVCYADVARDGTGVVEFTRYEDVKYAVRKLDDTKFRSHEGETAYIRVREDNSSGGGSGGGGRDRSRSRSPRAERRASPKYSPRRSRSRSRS
The following applies: 20 nM protein, 1.5 uM RNA pool; 20 mM HEPES pH 7.8, 70 mM KCl, 10 mM NaCl, 10% glycerol, 2 mM DTT, 0.1 ug/uL BSA; 30 min, 4 C.

Data set [5] deals with T3, rnp-3 (Caenorhabditis elegans) (UniProt Q21323).
T3 sequence: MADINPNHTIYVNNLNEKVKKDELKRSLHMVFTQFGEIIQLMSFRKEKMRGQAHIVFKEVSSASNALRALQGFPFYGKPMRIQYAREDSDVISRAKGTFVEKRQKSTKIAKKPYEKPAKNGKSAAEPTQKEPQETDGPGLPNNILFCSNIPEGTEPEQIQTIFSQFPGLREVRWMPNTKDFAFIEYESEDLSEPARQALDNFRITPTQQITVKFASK
The following applies: 20 nM protein, 1.5 uM RNA pool; 20 mM HEPES pH 7.8, 70 mM KCl, 10 mM NaCl, 10% glycerol, 2 mM DTT, 0.1 ug/uL BSA; 30 min, 4 C.

Data set [6] deals with T4, snrpB2 (Dictyostelium discoideum) (UniProt Q54J05).
T4 sequence: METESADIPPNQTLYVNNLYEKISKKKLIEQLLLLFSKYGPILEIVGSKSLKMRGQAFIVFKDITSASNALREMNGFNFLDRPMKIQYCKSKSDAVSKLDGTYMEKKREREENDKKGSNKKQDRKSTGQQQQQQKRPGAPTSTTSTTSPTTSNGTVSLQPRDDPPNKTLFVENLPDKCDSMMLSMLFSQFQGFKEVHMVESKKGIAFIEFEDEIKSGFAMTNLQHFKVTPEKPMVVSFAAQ
As to conditions: 20 nM protein, 1.5 uM RNA pool; 20 mM HEPES pH 7.8, 70 mM KCl, 10 mM NaCl, 10% glycerol, 2 mM DTT, 0.1 ug/uL BSA; 30 min, 4 C.

Data set [7] has as its target T5, Hrb27C (Drosophila melanogaster) (UniProt P48809).
T5 sequence: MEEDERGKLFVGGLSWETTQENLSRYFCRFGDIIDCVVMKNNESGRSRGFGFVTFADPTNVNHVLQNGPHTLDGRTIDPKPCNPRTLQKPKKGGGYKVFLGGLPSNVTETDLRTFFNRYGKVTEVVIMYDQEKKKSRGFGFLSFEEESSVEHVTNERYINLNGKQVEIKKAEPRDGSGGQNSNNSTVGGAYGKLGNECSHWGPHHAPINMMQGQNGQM
As to conditions: 20 nM protein, 1.5 uM RNA pool; 20 mM HEPES pH 7.8, 70 mM KCl, 10 mM NaCl, 10% glycerol, 2 mM DTT, 0.1 ug/uL BSA; 30 min, 4 C (protocol of this paper; not …); cited from earlier work.

Data set [8] has as its target T6, HNRNPL C396G (Homo sapiens) (UniProt P14866).
T6 sequence: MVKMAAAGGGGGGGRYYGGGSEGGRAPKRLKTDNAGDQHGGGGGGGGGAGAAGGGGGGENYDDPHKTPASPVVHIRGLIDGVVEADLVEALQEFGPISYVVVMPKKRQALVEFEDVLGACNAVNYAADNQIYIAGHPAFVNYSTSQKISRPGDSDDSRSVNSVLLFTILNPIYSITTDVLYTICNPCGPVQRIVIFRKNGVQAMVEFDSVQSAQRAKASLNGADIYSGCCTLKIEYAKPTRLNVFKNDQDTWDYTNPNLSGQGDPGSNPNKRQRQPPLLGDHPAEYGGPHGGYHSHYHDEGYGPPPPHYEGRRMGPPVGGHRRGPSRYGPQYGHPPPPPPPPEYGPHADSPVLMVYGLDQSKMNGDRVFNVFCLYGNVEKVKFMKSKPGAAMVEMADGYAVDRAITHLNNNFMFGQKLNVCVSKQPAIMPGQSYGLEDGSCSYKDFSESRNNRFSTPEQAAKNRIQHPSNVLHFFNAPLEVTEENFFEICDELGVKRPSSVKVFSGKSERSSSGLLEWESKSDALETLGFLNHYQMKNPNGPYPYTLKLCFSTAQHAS
The following applies: 20 nM protein, 1.5 uM RNA pool; 20 mM HEPES pH 7.8, 70 mM KCl, 10 mM NaCl, 10% glycerol, 2 mM DTT, 0.1 ug/uL BSA; 30 min, 4 C (protocol of this paper; not …); cited from earlier work.

In data set [9] the target is T7, UBA2B (Arabidopsis thaliana) (UniProt O80678).
T7 sequence: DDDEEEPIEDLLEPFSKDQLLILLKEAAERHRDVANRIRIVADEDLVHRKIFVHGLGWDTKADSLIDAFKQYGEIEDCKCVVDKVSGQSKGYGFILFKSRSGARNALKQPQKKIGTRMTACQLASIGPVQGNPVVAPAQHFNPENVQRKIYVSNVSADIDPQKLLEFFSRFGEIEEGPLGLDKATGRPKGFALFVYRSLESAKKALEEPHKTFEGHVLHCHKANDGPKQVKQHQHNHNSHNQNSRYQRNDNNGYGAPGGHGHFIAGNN
The following applies: 20 nM protein, 1.5 uM RNA pool; 20 mM HEPES pH 7.8, 70 mM KCl, 10 mM NaCl, 10% glycerol, 2 mM DTT, 0.1 ug/uL BSA; 30 min, 4 C.

fmr1 (Xenopus tropicalis), sequence (Q6GLC9 170-401): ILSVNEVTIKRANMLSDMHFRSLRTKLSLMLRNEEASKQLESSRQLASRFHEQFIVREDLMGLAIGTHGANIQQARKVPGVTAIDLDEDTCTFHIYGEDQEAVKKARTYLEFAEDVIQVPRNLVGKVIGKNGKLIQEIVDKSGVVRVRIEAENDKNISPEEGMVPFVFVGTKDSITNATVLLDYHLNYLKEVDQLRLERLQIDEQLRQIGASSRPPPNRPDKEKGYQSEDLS

Take AUAAAUA [RNAcompete motif RNCMPT00500]: the binding signal (z-score (mean of top ten 7-mers)) in data set [1] was 8.79.

In data set [2], UUGCAC [RNAcompete motif RNCMPT00482] displayed a binding signal (z-score (mean of top ten 7-mers)) of 11.4. In turn, AAGACAA [RNAcompete motif RNCMPT00474] had a binding signal (z-score (mean of top ten 7-mers)) in [3] of 6.01.

In turn, AGGACGA [RNAcompete motif RNCMPT00503] displayed a binding signal (z-score (mean of top ten 7-mers)) in [4] of 7.55.

On to AGCACGG [RNAcompete motif RNCMPT00510], for which the binding signal (z-score (mean of top ten 7-mers)) in data set [5] was found to be 14.1. In the case of AGCAC [RNAcompete motif RNCMPT00507], in data set [6], the binding signal (z-score (mean of top ten 7-mers)) is 12.9. As to UAGGNUA [RNAcompete motif RNCMPT00093], in data set [7], the binding signal (z-score (mean of top ten 7-mers)) was 12.1. On to ACACACAA [RNAcompete motif RNCMPT00027], for which, in data set [8], the binding signal (z-score (mean of top ten 7-mers)) was 8.6. Consider UUUUU [RNAcompete motif RNCMPT00475], for which, in data set [9], the binding signal (z-score (mean of top ten 7-mers)) came to 10.7.
